Patent publication US20240343803A1 (SHANDONG SIMCERE BIOPHARMACEUTICAL, published 2024)
Read-outs that look alike come from different tables or passages of the source.

Experiments:
[1] = molecular target: T1, human PVRIG (AcroBiosystems, Cat NO. PVG-H52H4) (human, UniProt Q6DKI7 41-171, limits assumed); experiment: ELISA, coated human PVRIG
T1 construct: Bought protein with His tag; also called human PVRIG-his; human PVRIG protein
T1 sequence (looked up): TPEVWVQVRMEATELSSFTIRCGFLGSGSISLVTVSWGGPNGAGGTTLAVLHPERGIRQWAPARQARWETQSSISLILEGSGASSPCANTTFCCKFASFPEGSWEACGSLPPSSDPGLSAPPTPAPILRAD
Experimental: (§1) The ELISA plate was pre-coated with 50 μL/well of 1.0 μg/mL human PVRIG (AcroBiosystems, Cat NO. PVG-H52H4) or 50 μL/well of 0.5 μg/mL cynomolgus monkey PVRIG (Novoprotein, Cat NO. C09B). The tested antibodies were serially diluted (initial concentration 13 nM, 3-fold serial dilution, 12 concentration points), added into the plate (50 μL/well) and incubated at 37° C. for 2.0 hours. After washing the plate, the Goat anti-human IgG Fc-HRP (Merck, Cat NO. AP113P) working solution (dilution ratio 1:5000, 50 μL/well) were added into wells and incubated at 37° C. for 1.0 hour. A HRP substrate, TMB (KPL, Cat NO. 5120-0077) was added into wells after washing the plate again and incubated at 37° C. for 10 minutes for color development. After adding a termination solution to terminate the reaction, the absorbance value was read by a microplate reader (PE, Ensight-HH3400). An antibody binding curve was drawn with molar concentration of antibodies as the abscissa and the corresponding OD value as the ordinate. The EC50 value was calculated by using a Four Parameter Logistic Fit (GraphPadPrism9). The smaller the EC50 value, the stronger the ability of the antibodies binds to human or cynomolgus monkey PVRIG. The positive control antibodies are COM701-hIgG1, PVRIG-A50-H1b and PVRIG-A105-H1; and the negative control antibodies are anti-Fluorescein-hIgG1 (in house). The binding results of the 4 humanized bispecific antibodies to human PVRIG protein are shown in FIG. 41 and Tables 40 and 41, and the binding results to cynomolgus monkey PVRIG are shown in FIG. 42 and Tables 40 and 41. […] The binding of LC-BsAb-002 and LC-BsAb-006 to human PVRIG protein is slightly weaker than that of the corresponding monoclonal antibody (PVRIG-A50-H1b) and the positive control (COM701-hIgG1).

[2] = molecular target: T2, cynomolgus monkey PVRIG (Novoprotein, Cat NO. C09B) (cynomolgus monkey, UniProt A0A2K5WVV8 41-171); experiment: ELISA, coated cynomolgus PVRIG
T2 construct: Bought protein; construct not described; also called cynomolgus monkey PVRIG protein
T2 sequence: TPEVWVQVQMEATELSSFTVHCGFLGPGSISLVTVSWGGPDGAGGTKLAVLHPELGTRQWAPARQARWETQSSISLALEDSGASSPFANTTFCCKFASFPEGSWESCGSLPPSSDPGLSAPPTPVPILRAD
Experimental: as §1

[3] = molecular target: T3, human PVRIG-mFc protein (Acro, PVG-H5253) (human, UniProt Q6DKI7 41-171, limits assumed); experiment: HTRF competition, PVRIG-mFc with Bio-CD112-His as competitor
T3 construct: extracellular domain; Bought protein; also called PVRIG-ECD-mFc; not shown: mouse Fc tag of the bought protein
T3 sequence (looked up): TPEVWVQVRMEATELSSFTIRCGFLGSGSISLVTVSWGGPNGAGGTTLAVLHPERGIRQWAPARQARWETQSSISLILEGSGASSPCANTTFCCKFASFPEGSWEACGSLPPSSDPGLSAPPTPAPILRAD
Experimental: (§2) PVRIG-mFc (ACRO Biosystems, Cat NO. PVG-H5253) and Bio-CD112-His (Sino Biological, Cat NO. 10005-H08H) were diluted to 0.5 μg/mL, respectively. Streptavidin-Tb cryptate (Cisbio) and PAb anti mouse IgG-XL665 (Cisbio) were diluted to 20 μg/mL and 0.8 μg/mL, respectively. The tested antibodies were diluted from the initial concentration of 120 nM, by 3-fold serial dilution for 12 concentration points. The diluted PVRIG-mFc, Bio-CD112-His, Streptavidin-Tb Crytate and PAb anti mouse IgG-XL665 were mixed at 1:1:1:1, and added into a 384-well plate (PE, Cat NO. 6007299), 10 μL/well. 10 μL/well of serially diluted antibodies was added into wells, centrifuged at 1500 rpm for 30s, and incubated at 37° C. for 1 hour. The plate was read on the microplate reader (PE, Envision2105) with wavelengths of 665 nm and 620 nm. […] A Four Parameter Logistic Fit was performed with the molar concentration of the antibodies as the abscissa and Ratio as the ordinate to calculate IC50. The smaller the IC50, the better the effect of the antibody block the binding of PVRIG to PVRL2. The positive controls in this experiment are COM701-hIgG1, PVRIG-A50-H1b and PVRIG-A105-H1; and the negative control antibody is anti-Fluorescein-hIgG1 (in house). The effect of 4 humanized bispecific antibodies blocking the binding of PVRIG to PVRL2 is shown in FIG. 51 and Tables 44 and 45. […] The blocking effect of LC-BsAb-002 is better than its corresponding monoclonal antibody (PVRIG-A50-H1b) and the positive control (COM701-hIgG1). The blocking effect of LC-BsAb-006 is better than its corresponding monoclonal antibody (PVRIG-A50-H1b), but slightly weaker than the positive control (COM701-hIgG1). The blocking effects of LC-BsAb-009 and LC-BsAb-010 are not as good as their corresponding monoclonal antibodies (PVRIG-A105-H1) and the positive control (COM701-hIgG1).

[4] = molecular target: T3, human PVRIG-mFc protein (Acro, …); experiment: FACS blocking of PVRIG-mFc binding to CHO-K1-CD112 cells; competitor CD112
How it was run: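 After a further 30 min at 4° C with Zombie violet-stained CHO-K1-CD112 cells, binding was detected with PE goat anti-mouse IgG Fc (1:250) as mean fluorescence intensity on a BD Canto II. IC50 and curve AUC, taken from four-parameter logistic fits in GraphPad Prism, were expressed relative to a reference antibody as percentages.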

[5] = molecular target: T1, human PVRIG (AcroBiosystems, Cat NO. …); experiment: ELISA, coated human PVRIG; remark: listed apart in the source
Experimental: as §1, with “The smaller the EC50 value, the stronger the ability of the antibodies binds to human or cynomolgus monkey PVRIG.” left out

[6] = molecular target: T2, cynomolgus monkey PVRIG (Novoprotein, …); experiment: ELISA, coated cynomolgus PVRIG; remark: listed apart in the source
Experimental: as §1, with “The smaller the EC50 value, the stronger the ability of the antibodies binds to human or cynomolgus monkey PVRIG.” left out

[7] = molecular target: T3, human PVRIG-mFc protein (Acro, …); experiment: HTRF competition, PVRIG-mFc with Bio-CD112-His as competitor; remark: listed apart in the source
Experimental: as §2

Binder	% relative activity COM701-hIgG1/tested antibody [1]	% relative activity PVRIG-A105-H1/tested antibody [1]	EC50 [1]	% relative activity COM701-hIgG1/tested antibody [2]	% relative activity PVRIG-A105-H1/tested antibody [2]	EC50 [2]	% relative activity COM701-hIgG1/tested antibody [3]	% relative activity PVRIG-A105-H1/tested antibody [3]	IC50 [3]	also measured
PVRIG-A105-H1 (Fc fusion, VHH-human IgG1 Fc format is stated for the parental VHH antibodies; not restated for the humanized variants; also called A105.VH1; not shown: human IgG1 hinge-CH2-CH3 (Fc)) EVQLVESGGGLVQPGGSLRLSCAASGRTFDRHTMSWFRQAPGKEREFVATASRIPGDTYYVDSVKGRFTISRDNAKNSLYLQMNSLRAEDTAVYYCAATSAYCSEVDCYEKGSWYDNWGQGTMVTVSS	390%	100%	0.0636 nM	152%	100%	0.0239 nM	107%	100%	0.128 nM	% AUC to COM701-hIgG4 [4]: 111%; % AUC to SO35-hIgG1 [4]: 64.2%; % AUC to parental Ab [4]: 97.9%; % IC50 to COM701-hIgG4 [4]: 104%; % IC50 to SO35-hIgG1 [4]: 88.1%; % IC50 to parental Ab [4]: 99.7%
COM701-hIgG1 (antibody, V domains shown, Anti-PVRIG positive control) VH: QVQLVQSGAEVKKPGASVKVSCKASGYTFTDYNINWVRQAPGQGLEWMGYIYPYIGGSGYAQKFQGRVTMTRDTSTSTVYMELSSLRSEDTAVYYCAREDKTARNAMDYWGQGTLVTVSS VL: DIQMTQSPSSLSASVGDRVTITCRVSENIYSNLAWYQQKPGKAPKLLIYEATNLAEGVPSRFSGSGSGTDFTLTISSLQPEDFATYYCQHFWGTPYTFGQGTKLEIK	100%	25.6%	0.248 nM	100%	66%	0.0363 nM	100%	93.4%	0.137 nM	% relative activity COM701-hIgG1/tested antibody [5]: 100%; % relative activity PVRIG-A50-H1b/tested antibody [5]: 153%; EC50 [5]: 0.248 nM; % relative activity COM701-hIgG1/tested antibody [6]: 100%; % relative activity PVRIG-A50-H1b/tested antibody [6]: 105%; EC50 [6]: 0.0363 nM; % relative activity COM701-hIgG1/tested antibody [7]: 100%; % relative activity PVRIG-A50-H1b/tested antibody [7]: 150%; IC50 [7]: 0.137 nM
